# Experimental data reported in article PMC9477280 (PLoS Pathogens, 2022).
# B1: JVA-E10 (VHH)
# VHH: SGGGLVQAGGSLRLSCVASGRTFSDYAMGWFRQAPGKEREFVAAISWNGGSTYYADSVKGRFTISRDNAKNTMYLQMNSLKSEDTAVYYCISEGRGLRQVKTATDWEYWGQGTQVTVSP
# notes: also called αTir-13; JVF-12 (vector name); not shown: thioredoxin, N-terminal, kept; E-tag, C-terminal, kept
# B2: JVA-C9 (VHH)
# VHH: TGGGLVQAGGSLRLSCVDSGRTFGDNAMGWFRQAPGKEREYVAAIGYNGDSTYYLNSVKGRFTISRDNAKNTLYLQMNSLQLEDTGVYICAAKTRVTTKEYDFWGQGTQVTVSS
# notes: also called αTir-9; JVF-3 (vector name); not shown: thioredoxin, N-terminal, kept; E-tag, C-terminal, kept
# B3: JVC-D10 (VHH)
# VHH: TGGLVQTGDSLTLSCVVSGRGFCDWAMAWFRQAPGKEREKVSAIGWSGQDTYYSEPAKGRFTISRDNAKNTVWLRMTNLKSEDTAVYYCAAATRAYADYDYWGQGTQVTVSS
# notes: also called αTir-5; JVI-2 (vector name); not shown: thioredoxin, N-terminal, kept; E-tag, C-terminal, kept
# B4: JVA-F6 (VHH)
# VHH: SGGGLVQAGDSLRLSCVTSGRSFSEAAMGWFRQAPGKERELMTSIGWNGDRTYYADSVKGRFTISRDNAKNTVYLQMNGLTPNDTAVYYCAAAVRASKGYEYWGQGTQVTVSS
# notes: also called αTir-11; JVF-7 (vector name); not shown: thioredoxin, N-terminal, kept; E-tag, C-terminal, kept
# B5: JVA-G1 (VHH)
# VHH: SGGGLAQAGGSLKLSCVASGFTFADYAIGWFRQAPGKEREGVACISNSVGSTYYSDSVKGRVTISSDNVKKTVYLQMNSLKPEDTAFYYCALIDHGMNCRNSNGIHYWGKGTLVTVSS
# notes: also called αTir-14; JVF-14 (vector name); not shown: thioredoxin, N-terminal, kept; E-tag, C-terminal, kept
# B6: JVA-C8 (VHH)
# VHH: SGGGLVQAGGSLRLSCAASGFTFVDYGIAWVRQAPGKEREGVSCVSTSNRSQWYADSVKGRFTISSDNAKNTVYLQMDNLKPEDTAVYYCTRIDVGDNCRDGGGYRGQGTQVTISS
# notes: also called αTir-8; JVF-2 (vector name); not shown: thioredoxin, N-terminal, kept; E-tag, C-terminal, kept
# B7: JVB-G8 (VHH)
# VHH: TGGGLVQAGGSLRLSCVASGFTFNDYVLTWFRQAPGKGREGVASISPAFGNTFYADSVKGRFTITSDSAKKQVCLQMNNLKSEDTAVYFCAADPTVNFGPVLRAENYRHWGQGTQVTVSS
# notes: also called αTir-3; JVG-3 (vector name); not shown: thioredoxin, N-terminal, kept; E-tag, C-terminal, kept
# B8: JVC-E5 (VHH)
# VHH: TGGGTVQAGSSLRLSCTASGFTFTDAAMGWFRQAPGKEREFVAAINWDSANKYYADSVKGRFTISRDNAKNTVYLEMTALKPEDTADYICAGDAKLGHVATSDVWRFWGQGTQVTVSS
# notes: also called αTir-6; JVI-3 (vector name); not shown: thioredoxin, N-terminal, kept; E-tag, C-terminal, kept
# B9: JVC-C6 (VHH)
# VHH: SGGGLVQAGGSLRLSCAASGVTFVDYATGWFRQAPGKEREGIACISNGASGSFVVNSVKGRFTTSTDNAKNTAYLQMNDLKPEDTATYYCALLGRTGGHCTDPNEYSYWGQGTQVTVSS
# notes: also called αTir-4; JVI-1 (vector name); not shown: thioredoxin, N-terminal, kept; E-tag, C-terminal, kept
# B10: JVB-G4 (VHH)
# VHH: SGGGLVEAGGSLRLSCSASGRASGDGHLGWFGDGALAWFRQAPGKEREYVAAVGHSGTDTYYSDSVKGRFTISRDNAKSMGYLQMDNLRPDDTGIYYCALDLHLGQPGYDYWGQGTQVIVSS
# notes: also called αTir-2; JVG-2 (vector name); not shown: thioredoxin, N-terminal, kept; E-tag, C-terminal, kept
# B11: JVA-A1 (VHH)
# VHH: SGGSVEAGDSLRLSCAASGRGFGDGALAWFRQAPGKEREYVAAVGHSGTDTYYADSVKGRFTISRDNAKNMGYLQMDSLRPDDTGVYYCALDLHLGQPGYDYWGQGTQVTVSS
# notes: also called αTir-7; JVF-1 (vector name); not shown: thioredoxin, N-terminal, kept; E-tag, C-terminal, kept
# B12: JVA-D4 (VHH)
# VHH: TGGGLAQAGGSLRLSCATSGFTFADYAIGWFRQAPGKEREGVACISTSDNGQYSADSVKGRFTISKDNAKKTVYLQMNSLKPDDTAIYYCHLIDVGSNCRKGKDDGFWGQGTQVTVSS
# notes: also called αTir-10; JVF-4 (vector name); not shown: thioredoxin, N-terminal, kept; E-tag, C-terminal, kept
# B13: JVB-C6 (VHH)
# VHH: TGGGLVQPGGSLTLSCAASGFSITENAMGWARQVPGKGLEWVSLVYSGGNTYYAESIEGRFTISRDNAKNTVYLRMTSLKPEDTGVYYCAAREAVRVAGPPADVWGQGTQVTVSS
# notes: also called αTir-1; JVG-1 (vector name); not shown: thioredoxin, N-terminal, kept; E-tag, C-terminal, kept
# B14: JVA-D11 (VHH)
# VHH: SGGGLVQAGGSLRLSCAASGFTFNDYAKAWFRRAPGKEREGISAISSMGESTFYADSVKGRFTISSDSAKNTVYLQMNSLKPEDTAVYYCAADPTVKWGHVLREENYDYWGQGTQVTVVS
# notes: also called αTir-12; JVF-8 (vector name); not shown: thioredoxin, N-terminal, kept; E-tag, C-terminal, kept
# B15: JXF-C4 (VHH)
# VHH: SGGGLVQAGGSLRLSCVAYGRTANTFKEYAMGWFRHNPGEDHEFVGGISQNGDEAYFDDSVKGRFTPSRDNAKNTMYLQMNSLRPEDTAAYYCVAQRSSERLVGDMYSAMDSWGKGTLVTVST
# notes: also called αEspA-4; JXM-15 (vector name); not shown: thioredoxin, N-terminal, kept; E-tag, C-terminal, kept
# B16: JXF-D8 (VHH)
# VHH: SGGALVQPGGSLRLSCAASGINLDYYAIGWFRQAPGKERKGVSCISHVDDDRIYYSDSVKGRFTISRDNAKNTVYLQMNSLEPEDTAVYYCATAGPSDYPCDLELWTYRRWGQGTQVTVSS
# notes: also called αEspA-2; JXM-8 (vector name); not shown: thioredoxin, N-terminal, kept; E-tag, C-terminal, kept
# B17: JXF-D7 (VHH)
# VHH: SGGGLVQTGGSLRLSCSASGFALEYYAVGWFRQAPGKEREGVSCFSGSDGSKFHAQFVKGRFTISLDKEKNTVDLTMNNLKPEDTAVYYCAVAGPSDHQCDLGMTWYHRWGQGTQVTVSS
# notes: also called αEspA-1; JXM-6 (vector name); not shown: thioredoxin, N-terminal, kept; E-tag, C-terminal, kept
# B18: JYB-H6 (VHH)
# VHH: TGGGLVQPGGSLRLSCVASGFILDAYTIGWFRQAPGKEREGVASINGSGFSTNYADSVKGRFTISRDNAKNTVWLQMNSLKPEDTAVYYCAAALGLLTPRLESTPFDDWGQGTQVTVSS
# notes: also called αEspA-9; JYE-5 (vector name); not shown: thioredoxin, N-terminal, kept; E-tag, C-terminal, kept
# B19: JXF-H9 (VHH)
# VHH: SGGGLAQTGGSLRLSCAASGFRLEYYAVGWFRQAPGKEREGVSCLSGSDGSTYNAEFAKGRFTISRDDAKNTVYLLMNSLKPEDTAVYYCAVAGPSDYQCDLGTRWYHRWGQGTVVTVSA
# notes: also called αEspA-3; JXM-12 (vector name); not shown: thioredoxin, N-terminal, kept; E-tag, C-terminal, kept
# B20: JYB-D1 (VHH)
# VHH: TGGGLVQAGGSLRLSCAASGNTFSYTAMAWFRQAPGKQRELVARISSGRGPTKYADSVKGRFTISRDNTLNTVWLQMNDLKPEDTAVYFCNTLKYSGESSYIAGDSWGQGTQVTVSS
# notes: also called αEspA-7; JYE-3 (vector name); not shown: thioredoxin, N-terminal, kept; E-tag, C-terminal, kept
# B21: JYB-B8 (VHH)
# VHH: TGGGLVQPGGSLRLSCAASGFTFSTYWMYWVRQAPGKGLEWVSTIDTGGSDTYYADSVKGRFTISRDNVKNTLYLQMDNLKPEDTALYYCGSSRDIVIVTTLRDFDYWGQGTQVTVFS
# notes: also called αEspA-6; JYE-2 (vector name); not shown: thioredoxin, N-terminal, kept; E-tag, C-terminal, kept
# B22: JYB-H4 (VHH)
# VHH: SGGGLVQPGGSLRLSCAASGVTLEYYAIGWFRQVPGKEREGVSCISTSGAGTNYADSVKGRFTISKDNAKNTVYLQMNSLKPEDTAVYYCAARDFTEVPIGGCEWEYDYWGQGTQVTVSS
# notes: also called αEspA-8; JYE-4 (vector name); not shown: thioredoxin, N-terminal, kept; E-tag, C-terminal, kept
# B23: JYB-B1 (VHH)
# VHH: TGGGLVQAGGSLRLSCAISGFSLGDYAIGWFRQAPEKEREGVAFSGSLGNTYYPDSMKGRFTISRDDAENAVYLEMKNLKPEDTAVYRCTSGGTFDAVVLGLSTYWGQGTQVTVSS
# notes: also called αEspA-5; JYE-1 (vector name); not shown: thioredoxin, N-terminal, kept; E-tag, C-terminal, kept
# B24: JWU-F3 (VHH)
# VHH: SGGGLVQPGGSLRLTCVSSLSDFRLTNMAWYRQTPGSERDVVAGISPNGITSYHASVQDRFNISRDNARKTLFLQMNSLKPEDSGVYYCNIRWGSLLPWGQGTQVTVSP
# notes: also called JXA-1 (vector name); not shown: thioredoxin, N-terminal, kept; E-tag, C-terminal, kept
# B25: JWU-H4 (VHH)
# VHH: TGGGSVQPGGSLRLSCAPSGFSLAYYGVGWFRQAPGKEREALACISRFGDDTYYADSAKGRFTVSRDNAKNTVYLEMNNLKPEDTGVYYCAAGWVVVTDESCGSGDAYNYWGRGTQVTVSS
# notes: also called JXA-5 (vector name); not shown: thioredoxin, N-terminal, kept; E-tag, C-terminal, kept
# Target: T1, EPEC Tir (enteropathogenic E. coli (EPEC), UniProt B7UM99)
# T1 construct: also called GST-tagged EPEC Tir; recombinant his-tagged Tir
# Assay: ELISA; capture dilution ELISA; plate coated with 5 μg/mL of a non-competing VHH (no thioredoxin, no E-tag), antigen at 1 μg/mL captured for 1 h at 37°C (S1 Fig c-d: EPEC Tir, REPEC Tir); thioredoxin/VHH/E-tag from 125 nM in 1:5 serial dilutions; HRP anti-E-tag; EC50 estimates (apparent affinity); trace = EC50 >125 nM
# Settings: both partners purified
row,Binder,EC50 [nM]
1,B1,0.2
2,B2,5
3,B3,0.2
4,B4,25
5,B5,0.2
6,B6,0.2
7,B7,0.2
8,B8,0.2
9,B9,0.2
10,B10,0.1
11,B11,10
12,B12,0.5
13,B13,50
14,B14,0.2

# Target: C. rodentium EspA (Citrobacter rodentium ICC168 (parent of …, UniProt D2TKE3))
# Assay: ELISA; dilution ELISA; purified antigen coated directly on Nunc Maxisorp wells, typically 1 μg/mL in PBS overnight at 4°C, blocked with 4% milk in PBS 0.1% Tween; thioredoxin/VHH/E-tag from 125 nM in 1:5 serial dilutions, 1 h 37°C; detected with HRP anti-E-tag; EC50 estimates (apparent affinity); Trace = EC50 >125 nM, poor but detectable
# Settings: both partners purified
row,Binder,EC50 [nM]
1,B15,0.7
2,B16,0.7
3,B17,0.7
4,B18,0.3
5,B19,0.7
6,B20,3
7,B21,0.7
8,B22,0.5
9,B23,0.3

# Target: EPEC flagella (Escherichia coli O127:H6 E2348/69 (EPEC), UniProt B7USU2)
# Assay: as above
# Settings: both partners purified
row,Binder,EC50 [nM]
1,B24,0.2
2,B25,10
